{"source": "the DeepSol protein solubility set"}
{"test": "soluble on expression in E. coli; label from the status in PepcDB or PDB records"}
{"sequence": "MQARQPTVAPFDTAKLDRLMEEAGIDVIAATSKHNTQYLMGGYKFIFFAAMDAIGHSRYLPMVIYEKGAPDHSAYVGNRMEGAEHQNNPFWTPAVHTATWGTQDAAGLAVEHLKKIGKASGRIGIEPAFLPSDARDLLASRLDGARFVDATHVLERLRAVKTADELAKLRRASELITDSMLATIAAARAGSTKLEIIEQLRREETNRGLHFEYCLLTLGASHNRAGSPQAWAEGEILSIDSGGNYHGYIGDLCRMGVLGEPDAELEDLLAEVERIQQAAFAKVRAGVLGSEMIVAAEAELKASPSAAFTDFFCHGMGLITHEAPFLMTNHPVAYEGIDADKPLEAGNVISVETTMLHPKRGFIKLEDTLAITDKGYEMFGDRGRGWNRGGVLEHHHHHH", "soluble on expression in E. coli": "not soluble"}
{"sequence": "MKEVQETAEKIRTMEIRGAGRIAKAAAEVIRDYAAGLEAASIEEFAAGITEVSNYLISTRPTAVSLPNAVKLSSRYSSDNVENARKEVINNANLFIERADKALGRIGKIGAGRVQDGDVIMTHCNSHAALSIITTAFEDGKNISVIATESRPRRQGLLTVRRLNGFGIPTTLIVDSAVRYYMKDVDKVIVGADAIAANGALVNKIGTSQLALAAHEARKSFMVAAETFKFSPSTILGIPIEIEERSTDEVVDPSVLAELPHVQVKNPAFDFTPSEYIDMIVTDIGIIPPAMAYIVIKEHLGWEFEEIAAALEHHHHHH", "soluble on expression in E. coli": "not soluble"}
{"sequence": "MFEPMMEMSDDAVIKVVGVGGGGGNAVEHMVRESIEGVEFMSINTDAQALRKTSVGTVIQIGGNITKGLGAGANPQVGRDAALEDKERIKEFLTGADMVFIAAGMGGGTGTGAAPVIAEVAKELGILTVAVVTKPFSFEGKKRLAFAEQGIEELSKHVDSLITIPNEKLLKVLGRGITLLEAFASANNVLKNAVQGIAELITRPGMINVDFADVRTVMSEMGHAMMGSGVARGEDRAEEAAEMAISSPLLEDIDLAGARGVLVNITAGLDMRLDEFETVGNTVKAFASDNATVVIGTSLDPDMADEIRVTVVATGIGNEKKPDITLVAGGKSKVAPVSAPVTSRVEEKAAQPLHERVEVKTQPAAAPSHSSASQSVAPKPEKESGYLDIPAFLRRQAD", "soluble on expression in E. coli": "not soluble"}
{"sequence": "SSSLTSENAETKVGVFWDVEECPVPDGVEPSVVCENIKLALEKKGYRPCNVSIRVYGERTNKFKDDFLLADIMFLPAGDEGARFMRMCNDFFCWGNDNRKSTLMVMSRDSTEFASSFVMYKNLNFNILVAQPENVDRKCPVCRKPLEMIITDEWVWESLSAGGDPLPKTQEEPDLSNSCH", "soluble on expression in E. coli": "soluble"}
{"sequence": "LVRSGRNITMQIIGYMTSHRKQHLEATDVAREFGYGREHFCRLFRKATGKTFKEFLTDLRLDDACRKLSGSSASIASIARECGFPDTRALQTAVQRKYGIRAQEYRERYENR", "soluble on expression in E. coli": "soluble"}
{"sequence": "MSLVKPKYQRVVLKLSGEALAGEDGFGIKPPVIKEIVQEIKEVHELGIEMAIVVGGGNIWRGQIGAQMGMERAQADYMGMLATVMNALALQDTLENLGVPTRVQTSIEMRQIAEPYIRRRAERHLEKGRVVIFAGGTGNPYFSTDTTAALRAAEVDADVILMAKNNVDGVYSADPRVDETATKFEELTHLDVISKGLQVMDSTASSLSMDNDIPLVVFNLNEAGNIRRAILGENIGTTVRGKEGHHHHHH", "soluble on expression in E. coli": "soluble"}
{"sequence": "MQEIEQRIYLAATYDTKGEEAEYLRQLLRRDGVMVVTVDVATSGQGSPAMVSAQEVAACYPQGAQAVFTGERGSAIVAMALAFERYLAGQRDVGAVLGIGGSGGTALVTPAMRALPVGVPKLMVSTMASGNVAPYVGPSDIAMMYSVTDVAGLNRISRRVLANAAGAIAGAFRQARQPIADDGRPAVGITMFGVTTPCVQHVTAALHDRYDCLVFHATGTGGQSMEKLADSGLLAGVLDLTTTEVCDFLFGGVLACTDDRFGAIARSGVPYVGSCGALDMVNFGALDTVPAACRERLLYPHNPQVTLMRTTAQENARQGAWIAERLNRCEGQVRFLIPEGGVSALDAPGQAFYDEAADAALFQALYDHVRQTDRRRLVRVPCHINDPLFARAAVEQFHEISQ", "soluble on expression in E. coli": "not soluble"}
{"sequence": "PSSNGPLEGTRGKLKNKPRDRGTSPPQRAVEEFDDGEKVHLKIDPSVPNGRFHPRFDGQTGTVEGKQGDAYKVDIVDGGKEKTIIVTAAHLRRQE", "soluble on expression in E. coli": "soluble"}
{"sequence": "GPGSMPSLANGLRCPDALITRTLNPLLNGPKFAVIYCGNHQYKVAVGDVIAVQRLRVEIGSHIALKKVLMVGGPRFTAIGRPLLEGVRVTAQVEEQKRMRNVVSLFATPGRRHVRWVDAPHAATVIRICEIFYSPNVVGELDKYKGELLETFTPGQHTNPVYPVDDGYDVFRKKDKEAMENATTFLDLLGGV", "soluble on expression in E. coli": "not soluble"}
{"sequence": "MTKRIEIKPATAADQAALAEIYLVDRQQDFPWVTDPQLQDFNEDSRGEFVLVAWIDGQRAGFCSLYRLANFIHLLFVAPDFRHLKVGERLLTEMRQYATEPLTLKCVMANENALRFYAQVGFRIVK", "soluble on expression in E. coli": "not soluble"}
{"sequence": "MSLELEAKLAQANEQIKELSKREERVRIARDLHDTLGHTLSLLTLKSQLIQRLAASDPERTKLEAKEMETSSRSALKQVRELVSDMRTVTITEELVNIQHILRAGNITFQYEGADDFSVISPVTQNIISMCMREAVTNIIKHSKATHCAITISQFADKMRIVIRDDGKGAPKEKMFGNGLWGMEERLMLIEGGLTVSDHNGTVVALTIPLIKKAEEGHHHHHH", "soluble on expression in E. coli": "soluble"}
{"sequence": "MGSDKIHHHHHHMKKLLNTLYVTRQETYVHKERDTIVINSAGEKLAQFPALTISNILCFGQVSVSPPMMGYCGENGIGLVFYTEYGRFLARMIGKQTGNVLLRRTQYRLADDPEKANAIARVMVGAKIANARTVLMREIRNHGEHANISRAVEQLGYSLKSCQFSQSVPQTMGIEGDAAATYFSVFNGLIRGSRFQFNGRIRRPATDPVNALLSFIYSLITQECVSALMGVGLDPYVGFLHQDRPGRPSLALDLLEEFRASWADRFVLTLLNRRQLSPQAFVTEASGAVRLTDDTRKQVLVAFQERKQEEVVHPYLQEKVPYGLLPHCQALLLARHLRGDMEFYTPYLIK", "soluble on expression in E. coli": "not soluble"}
{"sequence": "MGSDKIHHHHHHMAVRQDTIWERFLSPVMRLLIDEEGLRRYADSIDWEKEGDRFRRDDVIIPSYYSSQNFHGITGGYLTYNAAVSYDPITQYVVPPNETIVRQALIDAVKVKPRRILDLGCGTGSTTLMLKRAFPEAEVIGLDLSPYMLVRAEDKARNSGLEIVWRHGNAEKTSFRDATFDLVTASLLFHETPNEVSLAILQESFRLLVTGGQVLILDGNQKTLRQLEWLNDVFEEPYIREYAAGSIEANMGAAGFEAVRSQDVWWINQVTGGVKPIATENVRRYTPTSVDNNDLEGLGSPAFGIIA", "soluble on expression in E. coli": "not soluble"}
{"sequence": "MAHHHHHHMCEKDDITVNEEILQKAQEFQVENEKDIKMKKLKPITEGLLKPEVDLLQISERGSRGRVKICNVLNVPRSEKEYNNNNSDKVENKYIGKIITVCGWSKAIRKQGGGRFCFVNLNDGSCHLNLQIVVNQCIENYEKLLKCGAGCCFRFTGELIISPVQNDNNKKGLLKENVELALNNNDIHNFEIYGENLDPQKYPLSKKNHGKEFLREVAHLRPRSYFISSVIRIRNSLSIATHLFFQSRGFLYIHTPLITTSDCEGGGEMFTVTTLLNENGDIRSIPRINLKNKKKEKREDILNEKNGKKDHMNDSLNNNTCNNNNNNGNSSSSNIVSSPQYEDNYLIDYKKDFFSKQAFLTVSGQLSLENLCSSMGDVYTFGPTFRAENSHTSRHLAEFWMIEPEIAFADLYDNMELAEAYIKYCIDYVLNNNFHDIYYFEENVETNLIKRLKNILNEDFAKITYTNAIEILQNYSDSFEVKVEWGMDLQSEHERFIAEKIFKKPVIVYNYPKDLKAFYMKLNEDNKTVAAMDVLVPKIGEVIGGSQREDNLERLDKMIKEKKLNIDSYWWYRQLRQYGSHPHAGFGLGFERLIMLVTGVDNIKDTIPFPRYPGHAEF", "soluble on expression in E. coli": "soluble"}
{"sequence": "MSKLKKKEYEQELKKLQVELVKLQEWVKHKGLKVVVLFEGRDAAGKGGVIKRITEKLNHRVCRVVALPAPTEKEKTQWYFQRYVAHLPSAGEIVLFDRSWYNRAGVEKVMGFCTPDEYEEFLRSCPEFERMLQRSGIILLKYWFSVSDEEQEKRFLGRINTPIKRWKFSPMDLESRHRWAEYSEAKDKMFAYTDTKNCPWWVVPSDSKQKARLNCISHLLSQIEYKALEYPPIELPEINKEGYVRAPIDDQTFVPDKY", "soluble on expression in E. coli": "not soluble"}
{"sequence": "MRVAIVGTGIAGNAAAWALSQRYPVTVYERELRAGGHSHTVTVDYDGTTIPVDIGFIVYNQLNYPDLTAMFAHLGVETVESCMSFSVSADAGRFEWKGGGSNWLETADGLFAQRRNLLSPSYLQMLRHILVFNEKSVEDFKTGALAGLTLGDYFESRKFAPRLLTDYLAPMGAAIWSAPASQILDFPAENFVAFFNNHRLLHYERPIWRTVKGGSARYVEKLTSAFKDDMRLGAAVTSIERSPKGVIVRDSLGGLGVFDHVVIGAHSDQALAMLSDASDIERDILGSIGYAPNMVYLHRDPRLMPKRKRAWASWNFLRWQREGSPVNDVAVTYWMNRLQGIDADKPLFVSLNPPFEPAPELTFGRYACDHPQYTAKAFAAQRRVGELQGHRNTWFCGAWTGYGFHEDGLRSGLAVAEHLGAPVPWRGPPSEFREAAELEHHHHHH", "soluble on expression in E. coli": "soluble"}
{"sequence": "MGSDKIHHHHHHMERTNTTTFKFFSLGGSNEVGRSCHILQYKGKTVMLDAGIHPAYQGLASLPFYDEFDLSKVDILLISHFHLDHAASLPYVMQRTNFQGRVFMTHPTKAIYRWLLRDFVRVTSIGSSSSSMGTKDEGLFSDEDLVDSFDKIETVDYHSTVDVNGIKFTAFHAGHVLGAAMFQIEIAGLRVLFTGDYSREVDRHLNSAEVPPLSSNVLIVESTFGTATHEPRLNRERKLTQLIHSTVMRGGRVLLPVFALGRAQEIMLILDEYWSQHADELGGGQVPIFYASNLAKKCMSVFQTYVNMMNDDIRKKFRDSQTNPFIFKNISYLRNLEDFQDFGPSVMLASPGMLQSGLSRDLLERWCPEDKNLVLITGYSIEGTMAKFIMLEPDTIPSINNPEITIPRRCQVEEISFAAHVDFQENLEFIEKISAPNIILVHGEANPMGRLKSALLSNFASLKGTDNEVHVFNPRNCVEVDLEFQGVKVAKAVGNIVNEIYKEENVEIKEEIAAKIEPIKEENEDNLDSQAEKGLVDEEEHKDIVVSGILVSDDKNFELDFLSLSDLREHHPDLSTTILRERQSVRVNCKKELIYWHILQMFGEAEVLQDDDRVTNQEPKVKEESKDNLTNTGKLILQIMGDIKLTIVNTLAVVEWTQDLMNDTVADSIIAILMNVDSAPASVKLSSHSCDDHDHNNVQSNAQGKIDEVERVKQISRLFKEQFGDCFTLFLNKDEYASNKEETITGVVTIGKSTAKIDFNNMKILECNSNPLKGRVESLLNIGGNLVTPLC", "soluble on expression in E. coli": "not soluble"}
{"sequence": "MMRRILLKSIKFYRIYLSPLKRNACCKFIPTCSQYAIDAIEKYGALKGSFMAVKRILRCNPFSKGGYDPVKLEHHHHHH", "soluble on expression in E. coli": "not soluble"}
{"sequence": "VALSPLPLPEGLELTGIEGTLWQGQAAQVRWQGMSLGDLNWDLHLSALLLGQLEADIRFGRGSSTQLRGKGVVGVGLSGPYADDFLLSLPAAQAITWLPLPVPLMAQGQLEMAVKQYRFGEPYCQQAEGSLAWSAAQLESPIGALQLGTVVSDFTCQESVVTLKGGQKTAQVSSEFNLSLQPDNRYQAQAWFKPEAEFPESLKEQLSWLPQPDGQGRYPFNQQGQL", "soluble on expression in E. coli": "not soluble"}
{"sequence": "MVHMSWFRRRRKSFFDLLEDIFREFEEEFRELEEEFEKLASRVQSRGEEFGKGPYIYGVRITIGPDGVPKVEEFGNIRMARGRPQIREEMEPLVDVIERDDEVWIVADIPGANKDKIKVRATEDKVVIKAENGKKYYKEVELPAKVDPKSAKASYRNGVLEIKLKKIKPAEEGTEVKVE", "soluble on expression in E. coli": "soluble"}
